{"source": "patent US20220389113A1", "about": "“BINDING PROTEINS TO CUB DOMAIN-CONTAINING PROTEIN (CDCP1)” (COMMONWEALTH SCIENTIFIC AND INDUSTRIAL RESEARCH ORGANISATION, priority 2019, published 2022)", "molecules": {"B1": {"name": "^89Zr-DFO-10D7 (conjugate)", "VH": "EVQLQQFGAELVKPGASVKISCKASGYSFSDFNIEWLKQSHGKSLEWIGDINPNYDSTNYNQKFKGRATLTVDKSSSTAYMEVRSLTSEDTAVYYCARLGYGYAMDYWGQGTSVTVSS", "VL": "NIVMTQSPQSMSMSVGERVTLSCKASENVGAYVSWFQQKPDQSPKLLILAASNRYTGVPARFIGSGSATDFTLTISSVQAEDLADYHCGQSYTYPYTFGGGTKLEIKRADAAPTVS"}}, "key": {"clear cell EOC PDX PH250": {"test_system": "clear cell EOC PDX PH250", "conditions": "mouse, in vivo", "procedure": "Mouse experiments were approved by the University of Queensland Animal Ethics Committee. For PET/CT imaging female NOD.Cg-Prkdc^scid Il2rg^tmwil/SzJ mice (6-8 weeks; 4 per group; Jackson Laboratory, Bar Harbor, Me.) were injected intraperitoneally with cells dissociated from a previously described clear cell EOC PDX designated PH250 (Weroha S J, et al., (2014) Clin Cancer Res. 2014; 20(5):1288-97) (0.2 g/mouse of pelleted cell slurry). CDCP1 expression by PDX PH250 was assessed by immunohistochemical and Western blot analysis as described (He Y, et al., (2016) Oncogene. 35(4):468-78.). 10D7 and IgG1K control were labelled with the positron-emitting radionuclide ^89Zr as described (Zeglis B M, et al., (2015) J Vis Exp. (96): 52521)), and yield and purity determined by radio-TLC and -HPLC (Agilent, Mulgrave, Australia). […] PET image acquisition (30 minutes) was followed by CT for anatomical registration and attenuation correction, with images reconstructed and analyzed using the Inveon Research Workspace (Siemens). Ex vivo bio-distribution was assessed after the final imaging time point. Harvested tumour and organs, cleaned of blood, were weighed and radioactivity quantified using a PerkinElmer 2480 Automatic Gamma Counter (Perkin Elmer, Milton, Australia) and presented as % ID/g of tumour or tissue. […]"}, "[1]": {"test_system": "CDCP1-positive TKCC05 cells", "assay": "Lindmo assay, immune-reactive fraction", "assay_type": "binding, human", "conditions": "3 h at 4° C.", "procedure": "10D7 and control IgG1κ were labelled with the positron-emitting radionuclide ^89Zr as described (Zeglis B M and Lewis J S (2015) J Vis Exp 96:52521). Yield and purity of the labelled antibodies were determined by radio-TLC and -HPLC (Agilent, Mulgrave, Australia). To assess the impact of radiolabelling on 10D7 binding, the immune-reactive fraction (IRF) of 10D7-^89Zr was determined by Lindmo assay as previously described (Burvenich I J et al (2016) J Nucl Med. 57(6):974-80). Briefly, serially diluted TKCC05 cells (5×10^6-0.156×10^6 cells) were incubated with various amounts of 10D7-^89Zr alone or in the presence of a saturating amount of unlabelled 10D7 antibody (700 nM). After incubation (3 h at 4° C.) cells were centrifuged and the radioactivity of the cell pellet and supernatant was determined using a Wizard 2480 gamma counter (Perkin Elmer, Milton, Australia) and immunoreactive fraction (IRF) was calculated as previously described (Tolmachev V, Orlova A, Andersson K. (2014) Methods Mol Biol. 1060:309-30; Burvenich I J et al (2016) J Nucl Med. 57(6):974-80).\nTo evaluate whether the ability of antibody 10D7 to disrupt cellular processes that promote PDAC in vitro can be harnessed to target this cancer in vivo, the inventors first evaluated the capacity of this antibody to detect PDAC xenografts in mice. […]"}}}
{"molecule": "B1", "values": [{"measurement": "percent injected dose per gram of tissue, tumour", "setting": "clear cell EOC PDX PH250", "value": "47.7±2.6", "unit": "% ID/g"}, {"measurement": "immune-reactive fraction (IRF)", "setting": "[1]", "value": 88.9, "unit": "%"}]}
